Reference: patent US7662919

Target: Flt1/VEGFR1 (human) (UniProt P17948)
Assay: cell-based or functional assay

Sequence of UniProt P17948 (P17948 27-1338): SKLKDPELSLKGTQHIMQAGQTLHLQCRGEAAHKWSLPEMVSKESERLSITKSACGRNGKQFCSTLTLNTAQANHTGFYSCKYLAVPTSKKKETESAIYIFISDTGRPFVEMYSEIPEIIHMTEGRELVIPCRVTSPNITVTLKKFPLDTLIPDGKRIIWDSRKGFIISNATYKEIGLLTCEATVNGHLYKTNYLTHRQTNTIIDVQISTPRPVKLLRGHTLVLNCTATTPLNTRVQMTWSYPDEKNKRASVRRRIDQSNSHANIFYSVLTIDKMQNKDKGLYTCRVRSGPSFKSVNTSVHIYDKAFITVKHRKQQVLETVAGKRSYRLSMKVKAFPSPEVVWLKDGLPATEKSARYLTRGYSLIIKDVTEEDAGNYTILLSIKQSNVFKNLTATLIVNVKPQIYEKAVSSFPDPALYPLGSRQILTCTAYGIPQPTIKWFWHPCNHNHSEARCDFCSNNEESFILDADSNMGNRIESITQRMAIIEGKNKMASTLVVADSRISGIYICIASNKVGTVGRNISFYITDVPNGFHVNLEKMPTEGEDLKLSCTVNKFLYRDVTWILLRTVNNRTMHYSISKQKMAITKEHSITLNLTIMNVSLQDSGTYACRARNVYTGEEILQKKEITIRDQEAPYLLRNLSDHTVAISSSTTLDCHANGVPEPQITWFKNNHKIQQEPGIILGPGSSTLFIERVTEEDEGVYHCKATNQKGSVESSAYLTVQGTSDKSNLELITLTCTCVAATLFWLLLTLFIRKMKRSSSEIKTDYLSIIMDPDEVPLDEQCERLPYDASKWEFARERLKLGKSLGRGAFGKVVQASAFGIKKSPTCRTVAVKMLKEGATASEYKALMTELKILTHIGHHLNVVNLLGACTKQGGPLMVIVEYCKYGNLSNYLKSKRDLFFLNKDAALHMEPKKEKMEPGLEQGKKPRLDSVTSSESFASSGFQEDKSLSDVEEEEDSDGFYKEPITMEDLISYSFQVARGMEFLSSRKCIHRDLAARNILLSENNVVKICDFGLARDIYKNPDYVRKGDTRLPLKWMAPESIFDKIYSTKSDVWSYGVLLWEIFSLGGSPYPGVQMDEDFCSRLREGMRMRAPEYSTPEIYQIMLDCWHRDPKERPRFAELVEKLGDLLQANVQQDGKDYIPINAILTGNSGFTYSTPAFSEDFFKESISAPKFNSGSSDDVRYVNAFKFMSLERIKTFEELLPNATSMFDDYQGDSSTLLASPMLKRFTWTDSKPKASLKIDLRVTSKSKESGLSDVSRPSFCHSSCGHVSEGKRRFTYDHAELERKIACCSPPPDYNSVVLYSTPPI

HUVEC buds containing multiple filopodia: 250%
Substance: PlGF (ligand)
